Measured values as given in patent US7700329B2, “Methods for making simvastatin and intermediates” (priority 2003, dated 2010).
In brackets after ≈: the same amount, converted by molar mass.

Key:
physchem = details: pH 9.5
[1] = pH 8
[2] = Enzyme screen for hydrolysis of lovastatin or lovastatin acid; type: biochemical; details: 2.5 mM substrate, 100 mM phosphate buffer/co-solvent pH 7 to 8, 30° C., 48 h; confirmed at 1 mM
Protocol: (§1) Any method for screening for enzymes for use in the methods of the invention, e.g., enzymes for the hydrolysis of lovastatin, lovastatin acid, 4-acetyl simvastatin or simvastatin, can be used, and, these methods are well known in the art. For example, in one exemplary set of screen conditions used to determine an enzyme(s) to be used in a method of the invention comprises use of 2.5 mM substrate, 100 mM phosphate buffer/co-solvent pH 7 to pH 8, 30° C., 48 h, with the following composition: (i) lovastatin or simvastatin in MTBE/buffer, (ii) lovastatin or simvastatin in toluene/buffer, (iii) lovastatin acid or simvastatin acid in 10% methanol/buffer. Screen results were confirmed at 1 mM substrate. […] SEQ ID NO:4 and SEQ ID NO:2 were further evaluated at 25, 50 and 100 mM lovastatin acid in 10% MeOH/buffer, pH 9, the more soluble lovastatin acid being used as substrate for convenience.

[3] = Enzyme screen for hydrolysis of simvastatin; type: biochemical; details: 2.5 mM substrate, 100 mM phosphate buffer/co-solvent pH 7 to 8, 30° C., 48 h; confirmed at 1 mM
Protocol: as §1

[4] = Comparison of genomic clones for hydrolysis of lovastatin acid under standard conditions; type: biochemical; details: same total protein concentration or same activity normalized against MUB
Excerpt: Genomic clones comprising sequences encoding enzymes having sequences as set forth in SEQ ID NO:4, SEQ ID NO:2, SEQ ID NO:6 (e.g., encoded by exemplary SEQ ID NO:3, SEQ ID NO:1, and SEQ ID NO:5, respectively), were compared for the hydrolysis of lovastatin acid under standard conditions (the same total protein concentration, or the same enzyme activity normalized against the fluorescent substrate, methylumbelliferyl butyrate (MUB)).

[5] = Large-scale hydrolysis of lovastatin, specific activity of esterase; type: biochemical; details: 100 g scale, 0.5 M lovastatin
Protocol: The in situ hydrolysis of lovastatin with SEQ ID NO:4 was optimized such that insignificant amounts of NaCl generated: 0.85 g lovastatin in MeOH and equimolar NaOH added. Clarified lysate of E. coli containing SEQ ID NO:4 was added to lovastatin acid. […] See FIG. 27 for an illustration summary of the results.
The results of Response Surface Analysis (RSA) can be applied to large-scale hydrolysis of lovastatin, e.g., using a protocol as illustrated in FIG. 28: • Reaction performed successfully on 100 g scale (0.5 M); • 97.5% conversion in 27 h; • Productivity: x g/g esterase/h; • Specific activity: 0.084 μmol/mg esterase/min.

[6] = Heat pre-treatment of lovastatin esterase, then lovastatin hydrolysis; type: biochemical; details: 60° C. for 30 min, centrifuged, supernatant used
Excerpt: Heat treatment has often been used as a convenient method to purify crude enzyme preparations when there is differential thermal stability between the desired enzyme and other contaminating proteins.

C[C@H]1C=C2C=C[C@H](C)[C@H](CC[C@@H](O)C[C@@H](O)CC(=O)O)C2[C@@H](O)C1 (stereo partly drawn) [Triol acid]
solubility (physchem): ~200 mM (≈ 67.7 mg/mL)

CCC(C)(C)C(=O)O[C@H]1C[C@@H](C)C=C2C=C[C@H](C)[C@H](CC[C@@H]3C[C@@H](OC(C)=O)CC(=O)O3)[C@H]21 [4-acetyl simvastatin]
elimination [1]: 13%

B1: SEQ ID NO:2: feruloyl esterase encoded by SEQ ID NO:1 (protein)
chain: MSLCVIRFIAGTLVLVASVESAVAQQACADLMGLELPYTTITSAAVATEGPIPQPAIFGSTDPIVAPERCEVRAVTRPTKDSEIRIELWLPLSGWNGKYLQIGSGGWAGSINRTGLIGPLQRGYAVAATDNGHISEGLVPDASWAIGHPQKLIDFGYRAVHETSVQAKAILRAYFGRGQDLSYFSGCSNGGREALMEAQRYPEDFEGIIAGAPANNWSRLFTGFVWNERALADDPIPPAKLTAIQAAAIAACDTLDGVEDGLIENPRACSFDPRSMVCTADDASDCLTEGQVATLHRIYSGPTNPRTGERIFPGYPMGTEAVPGGWVPWIVSASSEVPSIQASFGNSYYGHAVFEQSNWDFRTLDFDQDVAFGDAKAGPVLNATNPDLRSFRANGGKLIQYHGWGDAAITAFSSIDYYENVRAFLDRFPDPRSENTDIDGFYRLFLVPGMGHCSGGIGPSSFGNGFRSARTDAEHDLLSALEAWVERDTAPERLIGTGTAVGDPTATLTRPLCPYPRTARYLGSGNSNDAANFECALPAGVQ
modifications: Unkown; Soil sample
activity for the hydrolysis of lovastatin or lovastatin acid [2]: active

B2: SEQ ID NO:4: novel lovastatin esterase, family VII esterase with SXXK motif, encoded by SEQ ID NO:3 (protein)
chain: MEIHGTCDPKFHLVRQEFERNLRERGEVGASVCVTLHGETVVDLWGGMARADTQTPWTAETVSIVFSSTKGATALCAHMLASRGQLDLDAPVATYWPEFAQAGKARIPVKMLLNHQAGLPAVRTPLPQGAYADWELMVNTLAKEEPFWEPGTRNGYHALTMGWLVGEVVRRVSGKSLGTFFQEEIARPLGLDFWIGLPAEQEARVAPMIAAEPDPQSLFFQEVAKPGALQSLVLLNSGGYMGAQPEYDSRAAHAAEIGAAGGITNARGLAGMYAPLACGGKLKGVELVSPDMLARMSRVASATGRDAVLMMPTRFALGFMKSMDNRREPAGVQDSALFGEEAFGHVGAGGSFGFADPKAGMSFGYTMNRMGLGAGLNPRGQSLVDATYRSLGYQSDASGAWT
modifications: Unkown; Soil sample
activity for the hydrolysis of lovastatin or lovastatin acid [2]: active
activity for the hydrolysis of simvastatin [3]: showed activity
activity for hydrolysis of lovastatin acid compared among genomic clones [4]: best activity
Specific activity [5]: 0.084 μmol/mg esterase/min
activity of heat pre-treated versus untreated enzyme [6]: no difference in activity

B3: SEQ ID NO:6: feruloyl esterase encoded by SEQ ID NO:5 (protein)
chain: MRSAARISVAAVAFLCLLLTTRVSAQIVPAMECADLANQQLPNTTITSAQTVTTGSLTPPGSTNPITDLPPFCRVTGAIAPTSESHILFEVWLPLDKWNGKFAGVGNGGWAGIISFGALGSQLKRGYATASTNTGHEAAPGMNAARFAFEKPEQLIDFAYRSQHETALKAKALVQAFYGKPPEHSYFIGCSSGGYQGLMEAQRFPADYDGIVAGMPANNWTRLMAGDLDAILAVSVDPASHLPVSALGLLYRSVLAACDGIDGVVDGVLEDPRRCRFDPAVLMCKADQNPDGCLTPAQVEAARRIYGGLKDPKTGAQLYPGLAPGSEPFWPHRNPANPFPIPIAHYKWLVFADPNWDWRTFKFTDPADYQAFLNAEATYAPTLNATNPDLREFSRRGGRLIQYHGWNDQLIAPQNSIDYYESVLSFFGSGKQDRAQTVREVQSFYRLFMAPGMAHCGGGTGPNSFDMLDALEKWVEGGIAPERVLATRSINGVVDRLRPLCPYPQVAVYKGHGDTNDAANFVCRD
modifications: Unkown; Soil sample
activity for the hydrolysis of lovastatin or lovastatin acid [2]: active
